By Ki is commonly meant the equilibrium dissociation constant of an inhibitor or competing ligand from its target.

Like-named read-outs stand apart in the source and are kept apart here. No end group written: not given here.

Settings in all cases: modification not given
Assay [1] addresses T1, PC2, P16519.
T1 chain: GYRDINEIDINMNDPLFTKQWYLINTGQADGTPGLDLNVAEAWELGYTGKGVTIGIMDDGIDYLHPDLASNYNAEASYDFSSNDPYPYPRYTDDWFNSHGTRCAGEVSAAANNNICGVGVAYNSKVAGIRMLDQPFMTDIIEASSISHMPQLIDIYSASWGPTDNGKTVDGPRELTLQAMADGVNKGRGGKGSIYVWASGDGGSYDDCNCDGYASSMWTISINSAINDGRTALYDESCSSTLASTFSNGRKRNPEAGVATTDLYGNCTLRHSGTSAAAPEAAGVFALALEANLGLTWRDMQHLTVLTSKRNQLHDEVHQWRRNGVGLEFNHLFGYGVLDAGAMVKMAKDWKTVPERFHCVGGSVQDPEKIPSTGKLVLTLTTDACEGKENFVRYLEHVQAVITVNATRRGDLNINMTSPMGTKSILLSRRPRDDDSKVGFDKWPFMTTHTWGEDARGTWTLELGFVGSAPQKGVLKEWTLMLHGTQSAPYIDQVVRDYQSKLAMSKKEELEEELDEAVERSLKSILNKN

In assay [2] the target is T2, Furin (recombinant, truncated) (mouse), P23188.
T2 chain: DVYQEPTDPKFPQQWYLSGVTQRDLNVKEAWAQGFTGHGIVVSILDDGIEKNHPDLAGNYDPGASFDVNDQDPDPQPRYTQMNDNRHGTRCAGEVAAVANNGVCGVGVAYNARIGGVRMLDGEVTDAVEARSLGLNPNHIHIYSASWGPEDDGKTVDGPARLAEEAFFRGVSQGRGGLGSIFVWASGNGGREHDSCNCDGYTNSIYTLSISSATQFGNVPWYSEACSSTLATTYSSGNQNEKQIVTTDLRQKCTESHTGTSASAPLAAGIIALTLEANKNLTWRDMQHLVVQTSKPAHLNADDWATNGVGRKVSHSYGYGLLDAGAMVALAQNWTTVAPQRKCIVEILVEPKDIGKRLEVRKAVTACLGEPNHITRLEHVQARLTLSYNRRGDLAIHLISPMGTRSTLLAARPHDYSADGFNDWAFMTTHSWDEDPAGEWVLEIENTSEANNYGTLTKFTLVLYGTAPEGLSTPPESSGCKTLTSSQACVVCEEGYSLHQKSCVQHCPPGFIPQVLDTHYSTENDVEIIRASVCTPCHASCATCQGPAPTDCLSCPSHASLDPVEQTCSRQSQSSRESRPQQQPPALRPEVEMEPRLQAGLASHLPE

Assay [3] has as its target T2, Furin (recombinant, truncated) (mouse), ….
The target of assay [4] is T1, PC2, P16519.
Assay [5] deals with T3, PC1, P29120.
T3 chain: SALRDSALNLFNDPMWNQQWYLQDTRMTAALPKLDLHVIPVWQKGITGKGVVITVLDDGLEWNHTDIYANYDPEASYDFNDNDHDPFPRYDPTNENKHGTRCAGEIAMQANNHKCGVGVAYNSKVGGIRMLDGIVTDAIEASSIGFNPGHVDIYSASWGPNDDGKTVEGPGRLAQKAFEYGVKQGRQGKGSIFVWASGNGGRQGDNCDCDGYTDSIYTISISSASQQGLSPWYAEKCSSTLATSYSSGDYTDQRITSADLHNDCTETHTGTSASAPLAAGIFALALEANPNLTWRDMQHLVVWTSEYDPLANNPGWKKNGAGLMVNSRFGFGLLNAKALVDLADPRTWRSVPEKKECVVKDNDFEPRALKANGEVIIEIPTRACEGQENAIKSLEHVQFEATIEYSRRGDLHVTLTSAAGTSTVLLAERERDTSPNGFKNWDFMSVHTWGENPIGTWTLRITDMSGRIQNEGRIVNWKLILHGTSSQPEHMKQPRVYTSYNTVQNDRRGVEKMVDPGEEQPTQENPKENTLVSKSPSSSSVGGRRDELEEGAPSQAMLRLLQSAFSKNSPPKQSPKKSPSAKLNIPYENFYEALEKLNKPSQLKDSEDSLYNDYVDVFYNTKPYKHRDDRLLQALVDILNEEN

For assay [6], the target named is T2, Furin (recombinant, truncated) (mouse), ….
For assay [7], the target named is T4, PACE4, P29122.
T4 chain: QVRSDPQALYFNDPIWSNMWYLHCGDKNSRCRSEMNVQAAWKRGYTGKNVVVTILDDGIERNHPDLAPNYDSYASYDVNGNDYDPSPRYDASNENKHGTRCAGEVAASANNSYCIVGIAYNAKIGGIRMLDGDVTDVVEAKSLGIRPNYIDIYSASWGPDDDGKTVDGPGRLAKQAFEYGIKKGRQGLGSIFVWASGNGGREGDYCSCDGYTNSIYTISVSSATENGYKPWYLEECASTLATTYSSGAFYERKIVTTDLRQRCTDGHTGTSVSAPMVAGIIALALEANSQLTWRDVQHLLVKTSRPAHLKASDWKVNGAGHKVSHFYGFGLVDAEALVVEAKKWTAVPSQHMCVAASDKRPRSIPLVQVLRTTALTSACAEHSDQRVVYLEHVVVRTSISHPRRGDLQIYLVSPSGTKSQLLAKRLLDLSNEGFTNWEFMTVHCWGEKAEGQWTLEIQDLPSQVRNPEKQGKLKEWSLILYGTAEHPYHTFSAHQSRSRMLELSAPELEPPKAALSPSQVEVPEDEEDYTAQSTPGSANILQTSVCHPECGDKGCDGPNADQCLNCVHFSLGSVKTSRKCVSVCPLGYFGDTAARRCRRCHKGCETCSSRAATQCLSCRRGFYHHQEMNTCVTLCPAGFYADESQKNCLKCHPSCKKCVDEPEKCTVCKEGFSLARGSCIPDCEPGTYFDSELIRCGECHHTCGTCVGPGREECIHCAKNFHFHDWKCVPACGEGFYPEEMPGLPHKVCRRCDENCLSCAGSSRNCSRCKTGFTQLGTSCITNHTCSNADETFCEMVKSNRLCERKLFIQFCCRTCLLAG

Assay [8] concerns the target T2, Furin (recombinant, truncated) (mouse), ….
Assay [9] addresses T3, PC1, P29120.
Assay [10] deals with T4, PACE4, P29122.
The target in assay [11] is Furin (literature), P09958.
Sequence of Furin (literature), P09958 (P09958 108-715): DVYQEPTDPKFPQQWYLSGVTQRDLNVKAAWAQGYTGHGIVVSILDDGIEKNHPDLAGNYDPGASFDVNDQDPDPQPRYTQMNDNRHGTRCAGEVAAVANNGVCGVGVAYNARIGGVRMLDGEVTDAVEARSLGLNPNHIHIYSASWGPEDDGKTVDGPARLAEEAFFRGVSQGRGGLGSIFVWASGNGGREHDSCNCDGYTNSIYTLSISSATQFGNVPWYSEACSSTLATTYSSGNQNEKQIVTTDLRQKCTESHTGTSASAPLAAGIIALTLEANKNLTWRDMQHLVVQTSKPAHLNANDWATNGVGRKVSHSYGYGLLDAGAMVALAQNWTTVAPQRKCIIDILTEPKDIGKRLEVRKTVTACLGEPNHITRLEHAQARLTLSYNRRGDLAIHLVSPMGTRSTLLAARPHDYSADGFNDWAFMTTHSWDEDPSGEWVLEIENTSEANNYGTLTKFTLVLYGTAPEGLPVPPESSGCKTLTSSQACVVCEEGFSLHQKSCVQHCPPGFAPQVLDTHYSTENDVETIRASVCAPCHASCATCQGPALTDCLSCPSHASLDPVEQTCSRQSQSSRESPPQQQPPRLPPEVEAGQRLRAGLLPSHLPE
The target in a further assay is T5, PC7, Q16549.
T5 chain: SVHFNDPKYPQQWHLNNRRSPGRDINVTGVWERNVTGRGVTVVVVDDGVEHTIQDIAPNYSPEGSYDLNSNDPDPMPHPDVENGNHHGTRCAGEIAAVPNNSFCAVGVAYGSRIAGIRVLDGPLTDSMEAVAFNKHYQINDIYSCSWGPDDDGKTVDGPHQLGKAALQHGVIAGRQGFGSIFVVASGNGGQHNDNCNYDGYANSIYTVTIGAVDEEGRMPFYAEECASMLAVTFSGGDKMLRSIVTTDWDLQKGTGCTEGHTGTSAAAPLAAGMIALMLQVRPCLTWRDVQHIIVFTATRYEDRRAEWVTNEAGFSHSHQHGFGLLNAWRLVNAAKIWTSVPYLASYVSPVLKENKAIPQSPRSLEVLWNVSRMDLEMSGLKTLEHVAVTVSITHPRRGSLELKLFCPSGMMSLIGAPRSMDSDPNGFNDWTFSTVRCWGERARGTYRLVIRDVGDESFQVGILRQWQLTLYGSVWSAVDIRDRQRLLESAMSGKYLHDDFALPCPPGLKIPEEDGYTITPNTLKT

Assay [12] concerns the target T1, PC2, P16519.
In assay [13] the target is T2, Furin (recombinant, truncated) (mouse), ….
Assay [14] has the same target.
In assay [15] the target is T1, PC2, P16519.
The target in assay [16] is T2, Furin (recombinant, truncated) (mouse), ….
The target of assay [17] is T1, PC2, P16519.
For assay [18], the target named is T2, Furin (recombinant, truncated) (mouse), ….
The target of assay [19] is T1, PC2, P16519.
Assay [20] addresses T1, PC2, P16519.
In assay [21] the target is T2, Furin (recombinant, truncated) (mouse), ….

Regarding Ac-KHKRRR-NH2 [Ac-KHKRRR-NH2], the inhibition constant Ki in the assay with PC2, P16519 [1] is 280000 nM; in [2], 5200 nM.

On to Ac-LLRVKR-NH2 [Ac-LLRVKR-NH2], for which the Ki in assay [3] was found to be 3400 nM; in the assay with PC2, P16519 [4] it was 1000 nM.

As to RRRRRRRRR [Nona-L-arginine], the Ki with PC1, P29120 [5] came out at 12000 nM; in [6] it was 42 nM; with PACE4, P29122 [7], 110 nM.

Regarding RRRRRRRR [Octa-L-arginine], the Ki was 61 nM in assay [8]; 5100 nM with PC1, P29120 [9]; 150 nM in the assay with PACE4, P29122 [10].

Take EQRLLKRAKR [PC7 propeptide fragment]: the Ki in assay [11] is 80 nM; in the assay with PC7, Q16549 it was 6 nM.

Turning to Ac-RRKRRR-NH2 [Ac-RRKRRR-NH2], the Ki amounted to 461000 nM in the assay with PC2, P16519 [12] and 1300 nM in assay [13].

For the molecule Ac-RHKRRR-NH2 [Ac-RHKRRR-NH2], the Ki worked out at 3400 nM in assay [14] and 152000 nM in the assay with PC2, P16519 [15].

As to Ac-LLRVKR [Ac-LLRVKR], the inhibitory constant (Ki) in assay [16] was found to be 3500 nM; in the assay with PC2, P16519 [17], 1300 nM.

Consider Ac-KRKRRR-NH2 [Ac-KRKRRR-NH2], for which the inhibition constant Ki was 1600 nM in assay [18] and 391000 nM with PC2, P16519 [19].

On to Ac-HRKRRR-NH2 [Ac-HRKRRR-NH2], for which the Ki with PC2, P16519 [20] came to 309000 nM; in assay [21], 2100 nM.
